Results: the supplement of paper PMC10567573
± gives the standard deviation.

Assay: protein stability index of a GFP-peptide fusion (GPS, HEK-293T) (PSI 1-6); higher = more stable
Details: c terminus: a fixed tail appended
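Also: 24-mer peptide tiles fused after GFP, lentivirally expressed, FACS-sorted into six equal bins by GFP/DsRed ratio, decoded by Illumina sequencing, PSI is the read-weighted mean bin number.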

Q: With SEEKLALDNNASASGNATQTESGS [C10orf62] as the sequence, how does the protein stability index (treatment: DMSO) read?
A: The protein stability index was 5.55 ± 0.15.

Q: And the protein stability index (treatment: MLN4924 1 uM, 8 h)?
A: The protein stability index was 5.6 ± 0.19.

Q: For DSSEKELEPEAAEEALENGPKESL [ACBD3], which protein stability index (treatment: DMSO) is on record?
A: Its protein stability index is 5.62 ± 0.24.

Q: And the protein stability index (treatment: MLN4924 1 uM, 8 h)?
A: Its protein stability index is 5.55 ± 0.22.

Q: Which protein stability index (treatment: DMSO) does the source give for ERLASANLRVLVDCILRDTSEDLR [TEKT4] here?
A: The protein stability index was 2.21 ± 0.48.

Q: And the protein stability index (treatment: MLN4924 1 uM, 8 h)?
A: The protein stability index was 2.05 ± 0.15.

Q: For ELFIEISRRIPSTDANLPSGGKGF [RAB22A], which protein stability index (treatment: DMSO) is on record?
A: Its protein stability index is 2.36 ± 0.33.

Q: What about the protein stability index (treatment: MLN4924 1 uM, 8 h) of the same sequence?
A: Its protein stability index is 2.14 ± 0.34.

Q: Which protein stability index (treatment: DMSO) does the source give for KLPFCAMGVSSVIHPKNPHAPTIH [CPOX] here?
A: The protein stability index was 2.52 ± 0.2.

Q: And the protein stability index (treatment: MLN4924 1 uM, 8 h)?
A: The protein stability index was 2.52 ± 0.31.

Q: Which protein stability index (treatment: DMSO) does the source give for PPYQGGPPRPPMGMRPPVMSQGGR [ZNF207] here?
A: The protein stability index was 4.68 ± 0.34.

Q: And the protein stability index (treatment: MLN4924 1 uM, 8 h)?
A: Its protein stability index is 4.91 ± 0.16.

Q: Which protein stability index (treatment: DMSO) does the source give for TAPLTELLHSRNEGVATYAAAVLF [CTNNB1] here?
A: The protein stability index was 2.25 ± 0.46.

Q: What about the protein stability index (treatment: MLN4924 1 uM, 8 h) of the same sequence?
A: The protein stability index was 2.36 ± 0.34.

Q: With FQPQPVQPQQGYIPPMAQPGLPPV [ZNF207] as the sequence, how does the protein stability index (treatment: DMSO) read?
A: Its protein stability index is 3.5 ± 0.31.

Q: And the protein stability index (treatment: MLN4924 1 uM, 8 h)?
A: Its protein stability index is 3.74 ± 0.26.

Q: For IGVAGNHWDGYSKGVNRKLGRTGL [FUT8], which protein stability index (treatment: DMSO) is on record?
A: The protein stability index was 3.1 ± 0.16.

Q: And the protein stability index (treatment: MLN4924 1 uM, 8 h)?
A: Its protein stability index is 2.9 ± 0.18.

Q: For KKVLNLLKGAFPARLKKVLIVGAP [PTPN9], which protein stability index (treatment: DMSO) is on record?
A: The protein stability index was 2.81 ± 0.83.

Q: What about the protein stability index (treatment: MLN4924 1 uM, 8 h) of the same sequence?
A: Its protein stability index is 2.99 ± 0.43.

Q: Which results are given for SQDFVGEKLGSGEPSHSVKVHTVP [ATE1]?
A: protein stability index (treatment: DMSO): 4.78 ± 0.17; protein stability index (treatment: MLN4924 1 uM, 8 h): 4.83 ± 0.26

Q: Which protein stability index (treatment: DMSO) does the source give for EREEEDDALDSEGRDSEGPAEGEG [KCNG1] here?
A: Its protein stability index is 5.55 ± 0.29.

Q: What about the protein stability index (treatment: MLN4924 1 uM, 8 h) of the same sequence?
A: Its protein stability index is 5.74 ± 0.12.

Q: With QLSRELSTLRNLFKQLPEPLLASS [CEBPB] as the sequence, how does the protein stability index (treatment: DMSO) read?
A: Its protein stability index is 2.28 ± 0.1.

Q: And the protein stability index (treatment: MLN4924 1 uM, 8 h)?
A: Its protein stability index is 2.37 ± 0.29.

Q: For FQSHEPEFDYLKSLEIEEKINKIR [PPP2R2B], which protein stability index (treatment: DMSO) is on record?
A: Its protein stability index is 3.26 ± 0.36.

Q: What about the protein stability index (treatment: MLN4924 1 uM, 8 h) of the same sequence?
A: Its protein stability index is 3.56 ± 0.31.

Q: Which results are given for RTDYSGRGELSARQMHLARFLRML [RAD51]?
A: protein stability index (treatment: DMSO): 2.18 ± 0.42; protein stability index (treatment: MLN4924 1 uM, 8 h): 2.38 ± 0.26

Q: Which protein stability index (treatment: DMSO) does the source give for IVSLLLGTIHALIFAWNKWIDIKQ [STEAP1] here?
A: Its protein stability index is 2.06 ± 0.44.

Q: What about the protein stability index (treatment: MLN4924 1 uM, 8 h) of the same sequence?
A: Its protein stability index is 2.17 ± 0.29.

Q: Which protein stability index (treatment: DMSO) does the source give for RTPPKSPGDPSKDRAAKRLSLESE [TPPP] here?
A: The protein stability index was 5.3 ± 0.14.

Q: What about the protein stability index (treatment: MLN4924 1 uM, 8 h) of the same sequence?
A: The protein stability index was 4.99 ± 0.25.

Q: With FAQADALKGTLVSTLKEVKPTVFI [ACSBG2] as the sequence, how does the protein stability index (treatment: DMSO) read?
A: Its protein stability index is 2.4 ± 0.52.

Q: What about the protein stability index (treatment: MLN4924 1 uM, 8 h) of the same sequence?
A: The protein stability index was 3.04 ± 0.86.

Q: With QALAQAIKEAKEQHPDMSVTKVVV [EPB41L3] as the sequence, how does the protein stability index (treatment: DMSO) read?
A: Its protein stability index is 2.44 ± 0.34.

Q: What about the protein stability index (treatment: MLN4924 1 uM, 8 h) of the same sequence?
A: Its protein stability index is 2.53 ± 0.27.

Q: With QEPDFIDDIEEKTPISNEVEMESE [KMT2E] as the sequence, how does the protein stability index (treatment: DMSO) read?
A: The protein stability index was 5.24 ± 0.22.

Q: And the protein stability index (treatment: MLN4924 1 uM, 8 h)?
A: Its protein stability index is 5.43 ± 0.23.

Q: For DSDENSKPSVDTEGPALVEIDRSV [MIA2], which protein stability index (treatment: DMSO) is on record?
A: Its protein stability index is 5.16 ± 0.78.

Q: What about the protein stability index (treatment: MLN4924 1 uM, 8 h) of the same sequence?
A: The protein stability index was 5.29 ± 0.56.

Q: Which protein stability index (treatment: DMSO) does the source give for DAGSPYLIGLISDRLRRNWPPSFL [SPNS1] here?
A: The protein stability index was 2.22 ± 0.28.

Q: What about the protein stability index (treatment: MLN4924 1 uM, 8 h) of the same sequence?
A: The protein stability index was 2.08 ± 0.25.

Q: Which protein stability index (treatment: DMSO) does the source give for EVPLEVLRQRESKWLDMLNNWDKW [TBC1D10A] here?
A: Its protein stability index is 2.8 ± 0.18.

Q: And the protein stability index (treatment: MLN4924 1 uM, 8 h)?
A: Its protein stability index is 3.17 ± 0.49.

Q: With NRPSFDAILYYYQSGGRLRRPVNV [KCNA1] as the sequence, how does the protein stability index (treatment: DMSO) read?
A: Its protein stability index is 2.24 ± 0.085.

Q: And the protein stability index (treatment: MLN4924 1 uM, 8 h)?
A: The protein stability index was 2.37 ± 0.14.

Q: For FVSFFNKWDAENAIQQMGGQWLGG [TIA1], which protein stability index (treatment: DMSO) is on record?
A: Its protein stability index is 2.69 ± 0.78.

Q: What about the protein stability index (treatment: MLN4924 1 uM, 8 h) of the same sequence?
A: Its protein stability index is 2.1 ± 0.59.

Q: Which protein stability index (treatment: DMSO) does the source give for MPSKLFAGLVHVKQCIVAHPVNPP [CRYL1] here?
A: Its protein stability index is 2.37 ± 0.17.

Q: What about the protein stability index (treatment: MLN4924 1 uM, 8 h) of the same sequence?
A: Its protein stability index is 2.46 ± 0.35.

Q: Which protein stability index (treatment: DMSO) does the source give for WTLYKILDSCKQLTLAQGAGEEDP [SMG5] here?
A: The protein stability index was 2.32 ± 0.18.

Q: And the protein stability index (treatment: MLN4924 1 uM, 8 h)?
A: The protein stability index was 2.56 ± 0.28.

Q: Which results are given for DVDLTIHGRHIDCPATWGPSVEQA [FOXJ1]?
A: protein stability index (treatment: DMSO): 3.95 ± 0.16; protein stability index (treatment: MLN4924 1 uM, 8 h): 3.94 ± 0.3

Q: What does the source list for SNLETIFRIIDSDHSGFISLDEFR [PPEF2]?
A: protein stability index (treatment: DMSO): 2.52 ± 0.24; protein stability index (treatment: MLN4924 1 uM, 8 h): 2.73 ± 0.36

Q: What does the source list for YISLLLRAEPYPTSRFGSQCMQPN [NR2F2]?
A: protein stability index (treatment: DMSO): 2.55 ± 0.5; protein stability index (treatment: MLN4924 1 uM, 8 h): 2.43 ± 0.39

Q: Which protein stability index (treatment: DMSO) does the source give for FYHCSNDDEGDSYSDNPCSCSQSH [SPRY1] here?
A: The protein stability index was 4.28 ± 0.076.

Q: What about the protein stability index (treatment: MLN4924 1 uM, 8 h) of the same sequence?
A: Its protein stability index is 4.31 ± 0.25.

Q: With PERSYVFNGDFVDRGKDSVEILMI [PPEF2] as the sequence, how does the protein stability index (treatment: DMSO) read?
A: The protein stability index was 2 ± 0.38.

Q: What about the protein stability index (treatment: MLN4924 1 uM, 8 h) of the same sequence?
A: Its protein stability index is 2.23 ± 0.31.

Q: With KAGSSEWLAVDGLVSPSNNSKEDA [ATF4] as the sequence, how does the protein stability index (treatment: DMSO) read?
A: Its protein stability index is 5.13 ± 0.19.

Q: What about the protein stability index (treatment: MLN4924 1 uM, 8 h) of the same sequence?
A: The protein stability index was 5.14 ± 0.25.

Q: With VLMVGPNFRVGKKIGCGNFGELRL [CSNK1G1] as the sequence, how does the protein stability index (treatment: DMSO) read?
A: The protein stability index was 2.42 ± 0.053.

Q: And the protein stability index (treatment: MLN4924 1 uM, 8 h)?
A: Its protein stability index is 2.69 ± 0.61.

Q: What does the source list for LGYLLDKETLRLHPDIFLPSEICD [ZER1]?
A: protein stability index (treatment: DMSO): 2.4 ± 0.21; protein stability index (treatment: MLN4924 1 uM, 8 h): 2.46 ± 0.17

Q: Which results are given for YSPAVMNYSIPSNVTNLEGGPGRQ [ESR2]?
A: protein stability index (treatment: DMSO): 3.8 ± 0.4; protein stability index (treatment: MLN4924 1 uM, 8 h): 3.75 ± 0.4
